Results reported in patent publication US20080009438A9, “Screening methods for compounds useful in the regulation of body weight” (Millennium Pharmaceuticals, Inc., priority 1996, published 2008).

What was measured:
hMC1-r [1] = target: T1, hMC1-r (Homo sapiens, UniProt Q01726); test: Scatchard Analysis on MC1-r transfected COS7 cells with AP-Ag; format: binding; settings: culture supernatant containing up to 30 nM AP-Ag, estimated
T1 construct: expressed in transfected cells; host or cells: COS-7 cells, transient (DEAE-Dextran)
Method: (§1) COS-7 cells were transfected with hMC1-r or hMC4-r by the DEAE-Dextran method. A plasmid containing the Adenovirus VA1 and VA2 RNA genes was used to co-transfect the COS cells to enhance transient protein expression by increasing translational initiation. The MC4-r and the VA½ cDNA plasmids were used at a ratio of 10 to 1. Control plates received the VA½ plasmid alone. 48 hours post-transfection, the cells were rinsed and culture supernatant containing 15 nm of AP-Ag was added. AP-Ag is a truncated agouti protein, containing the cysteine-rich domain tagged with the alkaline phosphatase at its N-terminal. Binding of AP-Ag to transfected cells proceeded at room temperature for 90 minutes with gentle rocking. The cells were then washed 7 times before fixing and color development using NBT/BCIP substrate.
To assess the affinity of the agouti protein for the MC1-R receptor, a Scatchard Analysis was performed on MC1-r transfected COS7 cells using culture supernatant containing up to 30 nM AP-Ag. The Kd has been estimated at 20-30 nM range.

[2] = target: T2, Human melanocortin receptor 4 (hMC4-r) (Homo sapiens, UniProt P32245); test: Intracellular cAMP level in 293/MC4-R stable clones with agouti protein; format: cell-based; settings: 5 nM agouti protein; 293/MC4-R line relative to the parental 293 cell line
T2 construct: expressed in transfected cells
Method: Human melanocortin receptor 4 (hMC4-r) cDNA, under the control of the CMV promoter, was transfected into the 293 cell line, and stable clones were selected (293/MC4-R). The stable clones were tested for reduction in intracellular cAMP levels in the presence of 5 nM agouti protein.
When 5 nM agouti protein was added to the 293/MC4-R line, an 18% reduction of intracellular cAMP level, relative to the parental 293 cell line, was observed.

hMC1-r [3] = target: T1, hMC1-r; test: Direct binding of AP-Ag to hMC1-r transfected COS-7 cells (AP staining); settings: 15 nm AP-Ag, room temperature, 90 minutes; transfection efficiency typically 12-16%
Method: as §1
(§2) N-terminal truncated agouti protein, containing only the cysteine-rich C-terminal domain, retains the antagonizing activity of the full-length agouti. […]
(§3) The transfection efficiency, as monitored by β-galactosidase reporter plasmid, typically was 12-16%. 10-13% of the MC1-r transfected and 3-4% of the MC4-r transfected COS7 cells bound the agouti protein as determined by AP staining. […]

hMC4-r = target: T3, hMC4-r (Homo sapiens, UniProt P32245); test: Direct binding of AP-Ag to hMC4-r transfected COS-7 cells (AP staining); settings: 15 nm AP-Ag, room temperature, 90 minutes; transfection efficiency typically 12-16%
T3 construct: expressed in transfected cells; host or cells: COS-7 cells, transient (DEAE-Dextran), co-transfected with Adenovirus VA1/VA2 RNA plasmid
Method: as §1, §2, §3

T1 sequence (Q01726 whole entry): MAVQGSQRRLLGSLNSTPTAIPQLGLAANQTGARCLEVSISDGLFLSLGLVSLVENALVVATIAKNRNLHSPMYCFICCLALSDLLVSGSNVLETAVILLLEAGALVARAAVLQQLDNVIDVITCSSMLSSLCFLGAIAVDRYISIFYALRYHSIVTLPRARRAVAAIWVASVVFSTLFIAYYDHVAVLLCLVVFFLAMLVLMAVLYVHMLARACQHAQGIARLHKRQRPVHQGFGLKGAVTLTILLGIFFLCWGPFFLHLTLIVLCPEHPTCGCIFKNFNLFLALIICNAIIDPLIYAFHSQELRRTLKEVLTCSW
T3 sequence (P32245 whole entry): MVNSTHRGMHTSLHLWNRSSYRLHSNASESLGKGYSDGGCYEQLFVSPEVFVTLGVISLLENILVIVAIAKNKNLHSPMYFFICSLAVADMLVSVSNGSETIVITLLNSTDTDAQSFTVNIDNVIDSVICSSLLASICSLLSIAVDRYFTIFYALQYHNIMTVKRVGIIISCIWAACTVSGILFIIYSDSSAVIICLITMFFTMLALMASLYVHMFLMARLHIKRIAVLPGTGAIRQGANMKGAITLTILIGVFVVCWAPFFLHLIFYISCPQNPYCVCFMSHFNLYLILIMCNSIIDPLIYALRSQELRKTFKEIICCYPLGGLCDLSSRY
T2 sequence (P32245 whole entry): as above

| Kd (hMC1-r [1]) | reduction of intracellular cAMP level [2] | MC1-r transfected COS7 cells that bound the agouti protein as determined by AP staining (hMC1-r [3]) | MC4-r transfected COS7 cells that bound the agouti protein as determined by AP staining (hMC4-r) | Molecule |
| --- | --- | --- | --- | --- |
| 20 to 30 nM | – | – | – | AP-Ag: truncated agouti protein, containing the cysteine-rich domain tagged with the alkaline phosphatase at its N-terminal |
| – | 18% | 10-13% | 3-4% | agouti protein: gene product expressed in mice, involved in coat color and obesity when ectopically expressed; antagonizes melanocortin receptors (protein) HLALEETLGDDRSLRSNSSMNSLDFSSVSIVALNKKSKKISRKEAEKRKRSSKKKASMKKVARPPPPSPCVATRDSCKPPAPACCDPCASCQCRFFGSACTCRVLNPNC |
